Our source for the Kd values is US20220153875A1 (Chugai, published 2022).

Assay [1] deals with T1, human IL-6 receptor (hIL-6R) (human, UniProt P08887 20-357, limits assumed).
T1 sequence: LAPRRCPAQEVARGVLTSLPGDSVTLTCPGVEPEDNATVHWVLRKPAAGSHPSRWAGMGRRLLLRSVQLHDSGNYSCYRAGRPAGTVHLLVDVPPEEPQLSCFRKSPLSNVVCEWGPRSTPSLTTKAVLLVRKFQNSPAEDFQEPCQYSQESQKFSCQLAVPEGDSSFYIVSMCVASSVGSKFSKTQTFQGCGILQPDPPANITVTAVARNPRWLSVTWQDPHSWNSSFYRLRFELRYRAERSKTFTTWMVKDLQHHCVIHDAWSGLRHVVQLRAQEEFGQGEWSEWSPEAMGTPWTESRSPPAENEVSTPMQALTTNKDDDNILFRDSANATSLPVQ
The assay can be described thus: SPR (Biacore T200), antibody captured on ProA/G on CM4 chip, hIL-6R as analyte, single cycle kinetics, 25 C, in the presence of 100 µM MTA; 100 µM MTA in the antigen buffer. As to the method: (§1) The effects of MTA and adenosine on the antigen-antibody reaction between the antibodies purified and produced in Example (4-5) and the target antigens were evaluated using Biacore T200 (GE Healthcare). 20 mM ACES, 150 mM NaCl, 0.05% (w/v) Tween20, pH 7.4 was used as the running buffer, and the measurement was performed at 25° C. Changes in the amount of binding between antigens and antibodies were observed by immobilizing ProA/G on the sensor chip CM4 by amine coupling, immobilizing the antibody on it, and then interacting with various antigens as analytes. The running buffer and a buffer prepared by adding either MTA or adenosine to the running buffer at a final concentration of 100 μM were used to dilute the antigens. In addition, the antigens were prepared in concentration series of several steps, and the dissociation constant KD of each clone was calculated by single cycle kinetics analysis from the sensorgram for each antigen concentration. Biacore T200 Evaluation Software (GE Healthcare) was used to calculate the parameters.

For a further assay, the target named is human IL-6 (hIL-6) (human). Put plainly: SPR (Biacore T200), antibody captured on ProA/G on CM4 chip, hIL-6 as analyte, single cycle kinetics, 25 C, in the presence of 100 µM MTA; 100 µM MTA in the antigen buffer. The procedure: as §1
human IL-6 (hIL-6) (human), sequence (P05231 30-212): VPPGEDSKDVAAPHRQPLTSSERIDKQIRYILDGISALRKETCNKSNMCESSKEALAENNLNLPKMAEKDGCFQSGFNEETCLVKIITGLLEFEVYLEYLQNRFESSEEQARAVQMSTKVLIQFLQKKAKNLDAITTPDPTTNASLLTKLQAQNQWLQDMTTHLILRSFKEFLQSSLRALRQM
The target of the next assay is T2, human IgA (hIgA) (human).
T2 chain: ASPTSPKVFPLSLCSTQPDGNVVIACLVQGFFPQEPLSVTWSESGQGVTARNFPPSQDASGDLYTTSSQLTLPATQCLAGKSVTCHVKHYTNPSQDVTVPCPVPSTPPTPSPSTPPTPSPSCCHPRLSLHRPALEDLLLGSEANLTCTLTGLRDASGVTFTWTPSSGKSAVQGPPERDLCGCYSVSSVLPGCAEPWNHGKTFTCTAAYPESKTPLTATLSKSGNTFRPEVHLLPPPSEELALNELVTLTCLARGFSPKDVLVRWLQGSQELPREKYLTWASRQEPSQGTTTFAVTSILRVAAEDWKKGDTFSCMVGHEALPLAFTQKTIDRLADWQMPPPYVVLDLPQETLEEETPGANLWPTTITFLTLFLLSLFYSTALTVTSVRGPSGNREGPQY
The assay can be described thus: SPR (Biacore T200), antibody captured on ProA/G on CM4 chip, hIgA as analyte, single cycle kinetics, 25 C, in the presence of 100 µM MTA; 100 µM MTA in the antigen buffer.

B1: 6RS2T007H-F760mnN17/6RS2T007L-KT0 (antibody, human IgG1, kappa, N297A, V domains shown)
VH: QVQLVQSGAEVKKPGASVKVSCKVSNIVLMQHTYGWVRQPPGKGLEWIGIIGGDGHAWYPRWVKGRFTISKDNSKNQVVLTMTNMDPVDTATYYCARGGKDGFTNAWDPWGQGTLVTVSS
VL: DIQLTQSPSSLSASVGDRVTITCQSSQSVFNNNGLSWYQQKPGQPPKLLIYDASTLASGVPSRFSGSGSGTDFTLTINSLEAEDAATYYCHGSQATQIWWDNAFGGGTEVVVKR
notes: From the MTA-concentrated S02 library (humanized SMB0002 template); also called MTA-dependent anti-hIL-6R antibody
On to B1, for which the dissociation constant (Kd) in assay [1] worked out at 1010 nM.

B2: 6LS2T001H-F760mnN17/6LS2T001L-KT0 (antibody, human IgG1, kappa, N297A, V domains shown)
VH: QVQLVQSGAEVKKPGASVKVSCKVSDIDAMQYTYGWVRQPPGKGLEWIGIIGEGGEVWYPYWVKGRFTISKDNSKNQVVLTMTNMDPVDTATYYCARGYHEGFVNAWDPWGQGTLVTVSS
VL: DIKLTQSPSSLSASVGDRVTITCQSSQSVLWNNYLSWYQQKPGQPPKLLIYDASTLASGVPSRFSGSGSGTDFTLTINSLEAEDAATYYCHGSQFEQWVFDNAFGGGTEVVVKR
notes: From the MTA-concentrated S02 library; Target antigen is hIL-6
For B2, in the assay with human IL-6 (hIL-6), the Kd amounted to 126 nM.

B3: IAS2T001H-F760mnN17/IAS2T001L-KT0 (antibody, human IgG1, kappa, N297A, V domains shown)
VH: QVQLVQSGAEVKKPGASVKVSCKVSDIQDEQYAFGWVRQPPGKGLEWIGIIGATGHVWYPQWVKGRFTISKDNSKNQVVLTMTNMDPVDTATYYCARGHKQHFTNAFDPWGQGTLVTVSS
VL: DIQLTQSPSSLSASVGDRVTITCQSSQSVYKNNYLSWYQQKPGQPPKLLIYDASTLASGVPSRFSGSGSGTDFTLTINSLEAEDAATYYCHGAYLYLGVDNAFGGGTEVVVKR
notes: From the MTA-concentrated S02 library; Target antigen is hIgA
Consider B3, for which the Kd with human IgA (hIgA) came out at 689 nM.
